System: Escherichia coli TOP10
Test: shrunken log2 fold change of peptide-encoding DNA abundance (4.5 h post-induction vs induction); higher = less antimicrobial activity (less host growth inhibition)
Details: time post-induction: 4.5 h; library: site-saturation at positions 5, 18, 19, 20
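Also: peptides expressed intracellularly from a pBAD plasmid library in pooled LB shake-flask culture, induced with 0.3% L-arabinose, DNA abundance read by NGS, three biological replicates, DESeq2 with apeglm shrinkage.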

Sequence	shrunken log2 fold change
RRIRTRPPRLPRPRPRPVSKPRP	-0.096
RRIRRRPPRLPRPRPRPAHGPRP	0.279
RRIRFRPPRLPRPRPRPPMSPRP	0.0816
RRIRYRPPRLPRPRPRPNFWPRP	0.293
RRIRSRPPRLPRPRPRPCEKPRP	-0.475
RRIRARPPRLPRPRPRPMGAPRP	0.572
RRIRLRPPRLPRPRPRPWYDPRP	-0.309
RRIRARPPRLPRPRPRPWIFPRP	-0.114
RRIRNRPPRLPRPRPRPSPVPRP	0.00108
RRIRFRPPRLPRPRPRPRHFPRP	0.0931
RRIRSRPPRLPRPRPRPMVEPRP	0.884
RRIRQRPPRLPRPRPRPGMIPRP	-0.446
RRIRNRPPRLPRPRPRPRHYPRP	-0.446
RRIRRRPPRLPRPRPRPWANPRP	0.0142
RRIRTRPPRLPRPRPRPHTTPRP	-0.166
RRIRPRPPRLPRPRPRPKTSPRP	0.0127
RRIRLRPPRLPRPRPRPVYHPRP	-0.856
RRIRTRPPRLPRPRPRPHRPPRP	0.0943
RRIRCRPPRLPRPRPRPRTRPRP	0.47
RRIRTRPPRLPRPRPRPLPLPRP	-0.107
RRIRCRPPRLPRPRPRPGLWPRP	0.569
RRIRHRPPRLPRPRPRPEGFPRP	-0.078
RRIRMRPPRLPRPRPRPNDKPRP	0.145
RRIRNRPPRLPRPRPRPCDCPRP	0.0143
RRIRRRPPRLPRPRPRPWAIPRP	-0.0356

Sequence	shrunken log2 fold change
RRIRPRPPRLPRPRPRPQNHPRP	0.181
RRIRPRPPRLPRPRPRPFLIPRP	-0.459
RRIRFRPPRLPRPRPRPHPCPRP	-0.231
RRIRGRPPRLPRPRPRPPADPRP	1.59
RRIRVRPPRLPRPRPRPQALPRP	-0.000718
RRIRGRPPRLPRPRPRPDLYPRP	0.574
RRIRERPPRLPRPRPRPTFTPRP	-0.134
RRIRGRPPRLPRPRPRPFLAPRP	0.525
RRIRWRPPRLPRPRPRPNSSPRP	-0.0636
RRIRYRPPRLPRPRPRPYFFPRP	-0.792
RRIRERPPRLPRPRPRPPGHPRP	-0.0333
RRIRSRPPRLPRPRPRPRTHPRP	0.181
RRIRSRPPRLPRPRPRPDTIPRP	-1.3
RRIRIRPPRLPRPRPRPAHDPRP	0.0246
RRIRYRPPRLPRPRPRPKTVPRP	-1.07
RRIRSRPPRLPRPRPRPQTNPRP	-0.032
RRIRHRPPRLPRPRPRPPLHPRP	0.0208
RRIRGRPPRLPRPRPRPHAKPRP	0.126
RRIRGRPPRLPRPRPRPFLEPRP	0.625
RRIRMRPPRLPRPRPRPMALPRP	0.517
RRIRQRPPRLPRPRPRPKEGPRP	-0.0167
RRIRKRPPRLPRPRPRPIFCPRP	0.387
RRIRKRPPRLPRPRPRPHRGPRP	0.0594
RRIRARPPRLPRPRPRPQGEPRP	0.294
RRIRKRPPRLPRPRPRPRPGPRP	0.721

Sequence	shrunken log2 fold change
RRIRIRPPRLPRPRPRPRRGPRP	0.184
RRIRDRPPRLPRPRPRPDNSPRP	0.0428
RRIRPRPPRLPRPRPRPWALPRP	-0.0895
RRIRQRPPRLPRPRPRPTEAPRP	-0.0735
RRIRERPPRLPRPRPRPPFWPRP	-0.0269
RRIRPRPPRLPRPRPRPMSEPRP	-0.327
RRIRGRPPRLPRPRPRPYCYPRP	0.0406
RRIRCRPPRLPRPRPRPRELPRP	0.506
RRIRGRPPRLPRPRPRPTQHPRP	0.855
RRIRHRPPRLPRPRPRPDKCPRP	-0.0295
RRIRFRPPRLPRPRPRPVSKPRP	-0.358
RRIRQRPPRLPRPRPRPYWHPRP	-0.317
RRIRFRPPRLPRPRPRPKRKPRP	0.425
RRIRFRPPRLPRPRPRPPHKPRP	-0.027
RRIRRRPPRLPRPRPRPICWPRP	0.388
RRIRWRPPRLPRPRPRPPWDPRP	0.131
RRIRWRPPRLPRPRPRPDGYPRP	-0.0244
RRIRCRPPRLPRPRPRPNQWPRP	-0.117
RRIRNRPPRLPRPRPRPHVFPRP	-0.151
RRIRNRPPRLPRPRPRPLIYPRP	-0.114
RRIRWRPPRLPRPRPRPVNIPRP	0.0116
RRIRMRPPRLPRPRPRPTTDPRP	0.815
RRIRWRPPRLPRPRPRPNKVPRP	-0.129
RRIRYRPPRLPRPRPRPDQPPRP	0.0375
RRIRKRPPRLPRPRPRPNECPRP	0.157

Sequence	shrunken log2 fold change
RRIRARPPRLPRPRPRPFNFPRP	-0.0477
RRIRSRPPRLPRPRPRPKPAPRP	0.555
RRIRWRPPRLPRPRPRPNACPRP	0.478
RRIRVRPPRLPRPRPRPDPPPRP	1.27
RRIRRRPPRLPRPRPRPHLMPRP	0.226
RRIRDRPPRLPRPRPRPGMEPRP	0.784
RRIRLRPPRLPRPRPRPVRIPRP	0.115
RRIRNRPPRLPRPRPRPYQPPRP	-0.31
RRIRARPPRLPRPRPRPICWPRP	0.231
RRIRHRPPRLPRPRPRPFACPRP	-0.205
RRIRWRPPRLPRPRPRPIANPRP	0.00334
RRIRGRPPRLPRPRPRPDYYPRP	-0.0926
RRIRERPPRLPRPRPRPCPTPRP	-0.204
RRIRLRPPRLPRPRPRPSWFPRP	-0.237
RRIRPRPPRLPRPRPRPDEKPRP	-0.0591
RRIRYRPPRLPRPRPRPCNRPRP	-0.182
RRIRPRPPRLPRPRPRPTSTPRP	-0.0454
RRIRTRPPRLPRPRPRPYALPRP	-0.686
RRIRDRPPRLPRPRPRPHSEPRP	0.00449
RRIRQRPPRLPRPRPRPSCGPRP	0.117
RRIRGRPPRLPRPRPRPLYIPRP	-0.321
RRIRCRPPRLPRPRPRPLAQPRP	0.103
RRIRDRPPRLPRPRPRPRGHPRP	0.321
RRIRRRPPRLPRPRPRPKNEPRP	0.294
RRIRCRPPRLPRPRPRPNFFPRP	0.0889

Sequence	shrunken log2 fold change
RRIRLRPPRLPRPRPRPEASPRP	0.133
RRIRVRPPRLPRPRPRPCVPPRP	0.124
RRIRRRPPRLPRPRPRPYNPPRP	-0.348
RRIRPRPPRLPRPRPRPCVCPRP	0.0289
RRIRWRPPRLPRPRPRPFPEPRP	-0.145
RRIRDRPPRLPRPRPRPMCVPRP	0.101
RRIRVRPPRLPRPRPRPMRRPRP	0.392
RRIRARPPRLPRPRPRPVWTPRP	0.527
RRIRIRPPRLPRPRPRPEEWPRP	-0.128
RRIRGRPPRLPRPRPRPAFNPRP	0.2
RRIRGRPPRLPRPRPRPCFLPRP	0.0171
RRIRMRPPRLPRPRPRPNCRPRP	-0.135
RRIRRRPPRLPRPRPRPRDLPRP	0.427
RRIRVRPPRLPRPRPRPVMWPRP	0.365
RRIRCRPPRLPRPRPRPHSCPRP	-0.132
RRIRYRPPRLPRPRPRPMVAPRP	0.133
RRIRSRPPRLPRPRPRPNIFPRP	-0.138
RRIRYRPPRLPRPRPRPIWRPRP	0.0429
RRIRKRPPRLPRPRPRPCWWPRP	0.284
RRIRWRPPRLPRPRPRPLSVPRP	0.0836
RRIRPRPPRLPRPRPRPSPMPRP	-0.259
RRIRWRPPRLPRPRPRPFHNPRP	-0.392
RRIRERPPRLPRPRPRPCKSPRP	-0.0225
RRIRCRPPRLPRPRPRPEWLPRP	0.479
RRIRWRPPRLPRPRPRPQVSPRP	-0.0705
